Measured values from patent US20220315554A1, “COMPOUNDS COMPRISING A […] LIGAND AND USE THEREOF” (priority 2019, published 2022).
Bridge positions count the residues as written; N and C are the ends. * marks the point of attachment. tMeBn(DOTA-AET) = Cys-Cys bridge (thioethers) carrying DOTA-AET; tMeBn(DOTA-PP) = Cys-Cys bridge (thioethers) carrying DOTA-PP; Hexanoyl = CCCCCC(=O)*

T1: AR (h) (human (printed (h))), P10275
T1 chain: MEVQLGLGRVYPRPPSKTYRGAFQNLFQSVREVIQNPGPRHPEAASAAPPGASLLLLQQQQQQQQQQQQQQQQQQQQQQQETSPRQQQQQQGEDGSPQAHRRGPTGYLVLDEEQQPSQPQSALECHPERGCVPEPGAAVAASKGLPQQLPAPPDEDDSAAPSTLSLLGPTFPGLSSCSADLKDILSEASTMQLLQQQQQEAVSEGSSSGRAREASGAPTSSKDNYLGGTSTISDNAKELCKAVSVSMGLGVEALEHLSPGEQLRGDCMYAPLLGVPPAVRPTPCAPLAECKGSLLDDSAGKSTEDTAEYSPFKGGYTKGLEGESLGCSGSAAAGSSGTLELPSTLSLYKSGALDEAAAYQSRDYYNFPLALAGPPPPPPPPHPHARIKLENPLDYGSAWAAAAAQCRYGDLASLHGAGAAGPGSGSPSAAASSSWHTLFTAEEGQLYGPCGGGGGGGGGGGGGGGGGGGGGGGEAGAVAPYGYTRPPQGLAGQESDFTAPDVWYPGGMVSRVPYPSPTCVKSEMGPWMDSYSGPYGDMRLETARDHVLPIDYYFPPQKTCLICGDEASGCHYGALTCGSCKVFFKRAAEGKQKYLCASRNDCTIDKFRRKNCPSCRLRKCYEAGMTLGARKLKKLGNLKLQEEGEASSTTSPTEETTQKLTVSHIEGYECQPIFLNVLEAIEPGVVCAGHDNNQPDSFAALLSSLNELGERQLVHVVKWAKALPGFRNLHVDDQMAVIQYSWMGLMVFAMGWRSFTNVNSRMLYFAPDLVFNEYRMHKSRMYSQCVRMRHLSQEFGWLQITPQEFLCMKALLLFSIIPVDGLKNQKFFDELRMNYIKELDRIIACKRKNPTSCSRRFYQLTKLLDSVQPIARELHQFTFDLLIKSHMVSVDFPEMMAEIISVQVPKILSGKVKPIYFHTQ

T2: ETA (h) (human (printed (h))), P25101
T2 chain: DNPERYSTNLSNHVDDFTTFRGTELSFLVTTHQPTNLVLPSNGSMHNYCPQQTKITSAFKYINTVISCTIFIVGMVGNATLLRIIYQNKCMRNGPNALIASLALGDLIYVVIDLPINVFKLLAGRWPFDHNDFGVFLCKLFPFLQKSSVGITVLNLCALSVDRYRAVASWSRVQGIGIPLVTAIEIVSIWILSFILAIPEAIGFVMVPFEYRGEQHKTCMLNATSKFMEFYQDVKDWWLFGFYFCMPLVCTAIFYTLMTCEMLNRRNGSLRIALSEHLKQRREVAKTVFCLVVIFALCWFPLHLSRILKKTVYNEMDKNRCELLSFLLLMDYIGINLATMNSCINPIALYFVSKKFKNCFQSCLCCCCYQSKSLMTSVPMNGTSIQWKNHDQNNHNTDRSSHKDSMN

T3: delta (DOP) (h) (human), P41143
T3 chain: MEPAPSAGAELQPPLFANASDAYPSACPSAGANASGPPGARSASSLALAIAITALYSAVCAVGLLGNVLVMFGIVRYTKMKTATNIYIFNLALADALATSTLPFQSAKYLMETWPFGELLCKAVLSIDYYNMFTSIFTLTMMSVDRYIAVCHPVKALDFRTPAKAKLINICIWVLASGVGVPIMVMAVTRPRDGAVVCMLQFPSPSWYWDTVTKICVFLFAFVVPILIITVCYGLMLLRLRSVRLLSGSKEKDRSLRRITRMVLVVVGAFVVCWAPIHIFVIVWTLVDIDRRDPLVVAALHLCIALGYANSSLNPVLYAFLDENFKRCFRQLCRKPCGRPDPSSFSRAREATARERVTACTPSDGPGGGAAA

T4: dopamine transporter (h) (human (printed (h))), Q01959
T4 chain: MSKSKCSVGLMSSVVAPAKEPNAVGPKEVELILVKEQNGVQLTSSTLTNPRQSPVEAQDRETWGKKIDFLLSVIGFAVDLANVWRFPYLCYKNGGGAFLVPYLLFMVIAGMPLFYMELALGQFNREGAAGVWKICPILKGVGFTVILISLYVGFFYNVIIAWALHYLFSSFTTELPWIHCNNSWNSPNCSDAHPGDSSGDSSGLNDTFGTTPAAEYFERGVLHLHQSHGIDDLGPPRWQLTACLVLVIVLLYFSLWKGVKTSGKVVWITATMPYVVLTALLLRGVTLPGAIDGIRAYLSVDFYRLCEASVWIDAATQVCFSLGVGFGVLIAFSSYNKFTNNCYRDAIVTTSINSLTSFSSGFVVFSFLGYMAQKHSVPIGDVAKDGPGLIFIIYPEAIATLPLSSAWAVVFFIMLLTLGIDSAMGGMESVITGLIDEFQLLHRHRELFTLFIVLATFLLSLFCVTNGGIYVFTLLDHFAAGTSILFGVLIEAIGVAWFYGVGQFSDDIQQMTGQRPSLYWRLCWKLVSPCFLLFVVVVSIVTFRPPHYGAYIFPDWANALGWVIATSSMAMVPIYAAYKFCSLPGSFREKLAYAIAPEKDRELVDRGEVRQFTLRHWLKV


Assays:
Test in all cases: radioligand displacement, 10 uM compound
Conditions in all cases: remark: other sources report otherwise
[1] = target: T1, AR (h) (human (printed (h))), P10275
[2] = target: T2, ETA (h) (human (printed (h))), P25101
[3] = target: M3 (h) (human (printed (h))), P20309
[4] = target: beta 2 (h) (human (printed (h))), P07550
[5] = target: T3, delta (DOP) (h) (human), …
[6] = target: T4, dopamine transporter (h) (human …)
[7] = target: kappa (h) (KOP) (human (printed (h))), P41145
[8] = target: mu (MOP) (h) (human), P35372
Chain of mu (MOP) (h) (human), P35372 (P35372 whole entry): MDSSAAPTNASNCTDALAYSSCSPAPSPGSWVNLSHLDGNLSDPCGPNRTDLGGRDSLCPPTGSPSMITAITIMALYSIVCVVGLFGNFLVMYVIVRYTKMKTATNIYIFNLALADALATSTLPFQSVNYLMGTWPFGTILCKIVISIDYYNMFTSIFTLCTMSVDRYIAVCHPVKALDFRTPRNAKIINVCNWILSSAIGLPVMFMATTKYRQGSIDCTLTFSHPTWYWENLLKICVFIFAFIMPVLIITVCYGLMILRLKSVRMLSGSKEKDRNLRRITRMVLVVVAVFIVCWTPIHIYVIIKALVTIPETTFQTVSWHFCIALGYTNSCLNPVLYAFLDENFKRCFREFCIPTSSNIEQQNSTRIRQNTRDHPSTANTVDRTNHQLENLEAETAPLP

Chain of kappa (h) (KOP) (human (printed (h))), P41145 (P41145 whole entry): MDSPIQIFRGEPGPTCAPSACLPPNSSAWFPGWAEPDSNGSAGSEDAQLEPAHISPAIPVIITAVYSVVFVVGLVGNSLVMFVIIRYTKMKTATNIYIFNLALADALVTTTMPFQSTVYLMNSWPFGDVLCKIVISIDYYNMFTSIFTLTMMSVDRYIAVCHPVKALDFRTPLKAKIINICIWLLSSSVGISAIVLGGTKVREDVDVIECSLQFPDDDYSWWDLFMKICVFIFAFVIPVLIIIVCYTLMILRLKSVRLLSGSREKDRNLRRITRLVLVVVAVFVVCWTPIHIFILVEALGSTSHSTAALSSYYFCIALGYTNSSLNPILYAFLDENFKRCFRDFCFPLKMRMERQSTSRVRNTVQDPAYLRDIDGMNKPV

Binder	% Inhibition of Specific Binding [1] [%]	% Inhibition of Specific Binding [2] [%]	% Inhibition of Specific Binding [3] [%]	% Inhibition of Specific Binding [4] [%]	% Inhibition of Specific Binding [5] [%]	% Inhibition of Specific Binding [6] [%]	% Inhibition of Specific Binding [7] [%]	% Inhibition of Specific Binding [8] [%]
Hexanoyl-CPPTQFC-OH (linker 1-7 via tMeBn(DOTA-AET)) [Hex-[Cys(tMeBn(DOTA-AET))-Pro-Pro-Thr-Gln-Phe-Cys]-OH (3BP-3554)]	-5	6	1	8	1	7	10	-10
Hexanoyl-CPPTQFCD-NH2 (linker 1-7 via tMeBn(DOTA-PP)) [Hex-[Cys(tMeBn(DOTA-PP))-Pro-Pro-Thr-Gln-Phe-Cys]-Asp-NH2 (3BP-3407)]	3	-18	10	4	0	12	7	2
